± gives the uncertainty stated by the source.
B1: Far upstream element-binding protein 1, residues 98 to 169; numbered along this chain, Q96AE4 (parent)
chain: RSVMTEEYKVPDGMVGFIIGRGGEQISRIQQESGCKIQIAPDSGGLPERSCMLTGTPESVQSAKRLLDQIVE

Variants of: B1
Test: abundance fitness (aPCA) (normalised: wild type 0, dead -1); higher = more abundant; growth selection in yeast, the domain comes from the species named
Conditions: Homo sapiens

Abundance fitness, by site and new letter:
G13: F -0.123 ± 0.045, H -0.055 ± 0.04, I -0.034 ± 0.047, K 0 ± 0.034, L -0.079 ± 0.026, M -0.034 ± 0.036, P -0.019 ± 0.03, Q 0.033 ± 0.033, R -0.007 ± 0.023, S 0.025 ± 0.026, T 0.031 ± 0.031, V -0.218 ± 0.027, W -0.038 ± 0.029, Y 0.012 ± 0.044
M14: A -0.007 ± 0.028, C -0.011 ± 0.037, D -0.082 ± 0.037, F -0.016 ± 0.044, G -0.097 ± 0.025, H -0.12 ± 0.044, I -0.037 ± 0.043, K -0.066 ± 0.033, L -0.013 ± 0.025, N -0.105 ± 0.042, P -0.27 ± 0.031, R -0.131 ± 0.023, S -0.026 ± 0.026, V -0.01 ± 0.027, W -0.093 ± 0.03, Y -0.025 ± 0.05
V15: C -0.124 ± 0.039, D -0.158 ± 0.044, F 0.011 ± 0.044, G -0.136 ± 0.027, H -0.135 ± 0.044, I -0.074 ± 0.041, L -0.046 ± 0.026, M -0.027 ± 0.036, N -0.213 ± 0.049, P -0.146 ± 0.032, Q -0.08 ± 0.035, R -0.206 ± 0.024, S -0.059 ± 0.028, T -0.126 ± 0.032, W -0.084 ± 0.029, Y -0.144 ± 0.047
G16: A -0.023 ± 0.029, C -0.083 ± 0.044, D 0.018 ± 0.039, E 0.009 ± 0.03, F -0.176 ± 0.059, H -0.064 ± 0.048, I -0.144 ± 0.06, K -0.028 ± 0.038, L -0.102 ± 0.029, M -0.098 ± 0.036, N -0.037 ± 0.043, P 0.033 ± 0.034, Q -0.029 ± 0.033, R -0.007 ± 0.023, T -0.054 ± 0.033, V -0.108 ± 0.027, W -0.09 ± 0.03, Y -0.118 ± 0.058
F17: A 0.045 ± 0.025, C -0.009 ± 0.032, D 0.015 ± 0.033, E 0.084 ± 0.027, G 0.04 ± 0.022, H -0.003 ± 0.035, I -0.041 ± 0.04, K 0.072 ± 0.03, L -0.008 ± 0.024, M 0.018 ± 0.032, N 0.022 ± 0.038, P 0.01 ± 0.028, Q 0.044 ± 0.029, R 0.047 ± 0.021, S 0.063 ± 0.024, T 0 ± 0.027, V -0.005 ± 0.024, W -0.007 ± 0.026, Y -0.019 ± 0.038
I18: A -0.189 ± 0.026, C -0.145 ± 0.041, D -0.175 ± 0.037, E -0.147 ± 0.029, F -0.036 ± 0.054, G -0.206 ± 0.023, K -0.264 ± 0.034, L -0.012 ± 0.027, M -0.049 ± 0.033, N -0.236 ± 0.055, P -0.266 ± 0.031, Q -0.243 ± 0.035, R -0.324 ± 0.024, S -0.226 ± 0.028, T -0.175 ± 0.028, V -0.031 ± 0.025, W -0.108 ± 0.029, Y -0.21 ± 0.046
I19: A -0.034 ± 0.027, C -0.001 ± 0.042, D -0.094 ± 0.038, E 0.018 ± 0.032, F -0.048 ± 0.054, G -0.072 ± 0.025, H -0.06 ± 0.038, K -0.021 ± 0.037, L -0.006 ± 0.027, M -0.071 ± 0.036, N -0.036 ± 0.045, P -0.211 ± 0.029, Q -0.03 ± 0.032, R -0.038 ± 0.023, S -0.046 ± 0.027, T -0.018 ± 0.03, V 0.012 ± 0.027, W -0.042 ± 0.031, Y -0.068 ± 0.051
G20: A -0.066 ± 0.026, C -0.167 ± 0.038, D -0.063 ± 0.036, E 0.002 ± 0.033, F -0.176 ± 0.052, H -0.08 ± 0.048, I -0.284 ± 0.051, K -0.14 ± 0.037, M -0.174 ± 0.037, N -0.115 ± 0.048, Q -0.178 ± 0.034, R -0.112 ± 0.024, S -0.078 ± 0.027, T -0.182 ± 0.032, V -0.253 ± 0.027, W -0.321 ± 0.033, Y -0.279 ± 0.054
R21: C -0.119 ± 0.21, E -0.251 ± 0.28, H -0.118 ± 0.12, P -0.027 ± 0.13, Q 0.046 ± 0.3, S 0.035 ± 0.14, V -0.11 ± 0.21
G22: C -0.103 ± 0.04, D 0.005 ± 0.045, E -0.006 ± 0.032, F -0.105 ± 0.041, H -0.021 ± 0.052, I -0.09 ± 0.048, K -0.001 ± 0.037, L -0.099 ± 0.028, M -0.129 ± 0.039, N 0.048 ± 0.047, P -0.151 ± 0.035, Q -0.014 ± 0.036, S -0.1 ± 0.028, W -0.15 ± 0.032, Y -0.137 ± 0.045
G23: A -0.045 ± 0.029, C -0.101 ± 0.035, D -0.051 ± 0.045, E -0.011 ± 0.033, F -0.179 ± 0.052, H -0.159 ± 0.058, I -0.17 ± 0.054, L -0.174 ± 0.03

From the Human Domainome abundance scans (Beltran et al. 2025)
